One block for each molecule: values may come before it.
Experiments:
[1] = target: fatty acid synthase (FAS) α subunit, C-terminally fused to GFP (S. cerevisiae) (UniProt P19097); assay: co-IP
[2] = target: T1, fatty acid synthase (FAS) β subunit, C-terminally fused to GFP (S. cerevisiae, UniProt P07149 1-2051); assay: selective ribosome profiling
[3] = target: T1, fatty acid synthase (FAS) β subunit, …; assay: co-IP
[4] = target: T2, methionyl-tRNA synthetase MetRS, C-terminally fused to GFP (S. cerevisiae, UniProt P00958 1-751); assay: selective ribosome profiling
T2 sequence: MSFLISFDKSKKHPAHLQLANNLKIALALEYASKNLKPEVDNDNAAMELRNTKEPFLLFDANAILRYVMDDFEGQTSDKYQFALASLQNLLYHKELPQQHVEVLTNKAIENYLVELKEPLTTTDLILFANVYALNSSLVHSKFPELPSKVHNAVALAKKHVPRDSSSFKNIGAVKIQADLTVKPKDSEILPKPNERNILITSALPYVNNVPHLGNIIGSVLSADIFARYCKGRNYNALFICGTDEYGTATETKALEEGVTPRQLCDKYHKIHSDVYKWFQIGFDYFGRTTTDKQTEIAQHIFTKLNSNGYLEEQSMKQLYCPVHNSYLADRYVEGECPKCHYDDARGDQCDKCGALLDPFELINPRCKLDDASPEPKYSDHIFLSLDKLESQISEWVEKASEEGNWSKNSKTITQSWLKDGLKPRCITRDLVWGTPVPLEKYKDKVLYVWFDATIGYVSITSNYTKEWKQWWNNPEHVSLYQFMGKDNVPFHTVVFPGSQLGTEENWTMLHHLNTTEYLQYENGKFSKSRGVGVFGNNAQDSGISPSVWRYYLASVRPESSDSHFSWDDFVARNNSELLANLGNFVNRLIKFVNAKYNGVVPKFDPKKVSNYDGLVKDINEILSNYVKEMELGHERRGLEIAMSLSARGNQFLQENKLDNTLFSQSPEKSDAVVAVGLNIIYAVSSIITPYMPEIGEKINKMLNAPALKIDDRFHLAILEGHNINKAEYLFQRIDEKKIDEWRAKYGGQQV

[5] = target: T3, glutamyl-tRNA synthetase GluRS, C-terminally fused to GFP (S. cerevisiae, UniProt P46655 1-708); assay: selective ribosome profiling
T3 sequence: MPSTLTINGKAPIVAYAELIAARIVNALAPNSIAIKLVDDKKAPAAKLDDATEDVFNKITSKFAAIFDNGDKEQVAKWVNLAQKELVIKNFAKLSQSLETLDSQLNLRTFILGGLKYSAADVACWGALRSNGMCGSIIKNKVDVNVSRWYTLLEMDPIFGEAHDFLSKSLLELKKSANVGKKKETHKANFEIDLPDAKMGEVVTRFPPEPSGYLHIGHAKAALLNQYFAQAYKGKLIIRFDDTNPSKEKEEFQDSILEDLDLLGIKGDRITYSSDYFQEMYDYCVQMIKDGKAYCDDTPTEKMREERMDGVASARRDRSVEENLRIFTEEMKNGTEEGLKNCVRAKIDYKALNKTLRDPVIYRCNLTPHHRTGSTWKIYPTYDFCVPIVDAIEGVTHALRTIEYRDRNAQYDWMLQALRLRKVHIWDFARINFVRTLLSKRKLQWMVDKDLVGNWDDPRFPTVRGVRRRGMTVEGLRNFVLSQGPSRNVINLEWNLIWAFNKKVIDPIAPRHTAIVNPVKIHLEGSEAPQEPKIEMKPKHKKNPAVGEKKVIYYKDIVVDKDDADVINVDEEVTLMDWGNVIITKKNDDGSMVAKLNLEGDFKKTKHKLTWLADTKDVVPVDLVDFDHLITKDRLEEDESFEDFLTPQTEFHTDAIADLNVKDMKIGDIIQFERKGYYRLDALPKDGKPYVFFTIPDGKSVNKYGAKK

T1 sequence (P07149 whole entry, the tested form may be a part): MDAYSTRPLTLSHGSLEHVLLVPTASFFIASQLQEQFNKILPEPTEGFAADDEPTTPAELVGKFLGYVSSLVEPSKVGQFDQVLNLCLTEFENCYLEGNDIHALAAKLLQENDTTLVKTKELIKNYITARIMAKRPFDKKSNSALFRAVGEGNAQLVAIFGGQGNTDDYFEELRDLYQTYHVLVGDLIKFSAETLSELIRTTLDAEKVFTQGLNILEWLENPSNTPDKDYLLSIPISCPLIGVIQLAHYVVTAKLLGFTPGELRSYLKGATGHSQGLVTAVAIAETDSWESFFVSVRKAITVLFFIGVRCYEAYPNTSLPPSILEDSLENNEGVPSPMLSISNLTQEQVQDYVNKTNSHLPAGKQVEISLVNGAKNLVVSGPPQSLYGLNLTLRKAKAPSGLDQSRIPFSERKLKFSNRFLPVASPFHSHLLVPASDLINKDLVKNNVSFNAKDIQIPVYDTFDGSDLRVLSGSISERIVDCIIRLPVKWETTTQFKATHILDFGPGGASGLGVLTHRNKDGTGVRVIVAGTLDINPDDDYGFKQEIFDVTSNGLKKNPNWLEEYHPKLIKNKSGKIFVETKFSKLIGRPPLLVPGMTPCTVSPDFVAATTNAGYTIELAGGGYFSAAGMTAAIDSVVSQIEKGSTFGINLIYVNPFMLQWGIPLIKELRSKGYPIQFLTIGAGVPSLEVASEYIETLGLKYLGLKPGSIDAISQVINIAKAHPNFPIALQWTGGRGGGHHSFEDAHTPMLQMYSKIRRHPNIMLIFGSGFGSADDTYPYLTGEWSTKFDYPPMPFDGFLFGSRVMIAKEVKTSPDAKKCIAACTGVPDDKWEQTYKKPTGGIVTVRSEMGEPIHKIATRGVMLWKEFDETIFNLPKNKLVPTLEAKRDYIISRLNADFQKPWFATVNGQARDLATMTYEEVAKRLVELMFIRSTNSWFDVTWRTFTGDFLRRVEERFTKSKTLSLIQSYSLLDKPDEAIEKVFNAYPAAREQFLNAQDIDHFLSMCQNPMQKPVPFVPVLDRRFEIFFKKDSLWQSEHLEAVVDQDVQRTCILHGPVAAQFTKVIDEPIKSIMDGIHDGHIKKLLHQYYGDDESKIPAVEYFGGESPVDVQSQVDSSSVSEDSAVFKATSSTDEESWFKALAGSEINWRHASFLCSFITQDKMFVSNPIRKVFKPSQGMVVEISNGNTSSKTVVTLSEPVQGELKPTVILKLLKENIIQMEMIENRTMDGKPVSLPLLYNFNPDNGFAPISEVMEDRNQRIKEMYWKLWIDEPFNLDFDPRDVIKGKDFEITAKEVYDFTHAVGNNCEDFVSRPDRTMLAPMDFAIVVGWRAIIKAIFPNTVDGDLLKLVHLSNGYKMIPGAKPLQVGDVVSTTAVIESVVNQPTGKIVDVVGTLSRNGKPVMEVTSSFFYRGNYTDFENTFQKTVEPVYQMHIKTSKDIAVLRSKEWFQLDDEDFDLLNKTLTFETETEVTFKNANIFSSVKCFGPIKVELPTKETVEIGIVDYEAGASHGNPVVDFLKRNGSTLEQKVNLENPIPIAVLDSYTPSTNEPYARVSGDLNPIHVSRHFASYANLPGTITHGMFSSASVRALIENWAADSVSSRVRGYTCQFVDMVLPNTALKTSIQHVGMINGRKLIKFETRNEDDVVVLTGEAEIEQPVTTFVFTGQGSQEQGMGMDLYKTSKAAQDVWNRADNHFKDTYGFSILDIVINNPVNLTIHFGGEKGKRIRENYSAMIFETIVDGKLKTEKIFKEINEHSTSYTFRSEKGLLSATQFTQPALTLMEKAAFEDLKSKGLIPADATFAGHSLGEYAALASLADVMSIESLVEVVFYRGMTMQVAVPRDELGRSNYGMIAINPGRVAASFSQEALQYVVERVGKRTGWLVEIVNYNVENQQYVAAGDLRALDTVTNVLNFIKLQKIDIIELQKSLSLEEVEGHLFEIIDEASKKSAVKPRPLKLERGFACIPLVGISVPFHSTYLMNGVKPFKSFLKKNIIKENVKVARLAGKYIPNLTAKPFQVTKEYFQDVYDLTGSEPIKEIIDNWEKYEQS

Molecule: FAS β subunit, untagged, of the mature FAS, P07149 1-2051
stoichiometry N [1]: 1

B2: FAS α subunit, untagged, of the mature FAS (natural protein)
chain: MKPEVEQELAHILLTELLAYQFASPVRWIETQDVFLKDFNTERVVEIGPSPTLAGMAQRTLKNKYESYDAALSLHREILCYSKDAKEIYYTPDPSELAAKEEPAKEEAPAPTPAASAPAPAAAAPAPVAAAAPAAAAAEIADEPVKASLLLHVLVAHKLKKSLDSIPMSKTIKDLVGGKSTVQNEILGDLGKEFGTTPEKPEETPLEELAETFQDTFSGALGKQSSSLLSRLISSKMPGGFTITVARKYLQTRWGLPSGRQDGVLLVALSNEPAARLGSEADAKAFLDSMAQKYASIVGVDLSSAASASGAAGAGAAAGAAMIDAGALEEITKDHKVLARQQLQVLARYLKMDLDNGERKFLKEKDTVAELQAQLDYLNAELGEFFVNGVATSFSRKKARTFDSSWNWAKQSLLSLYFEIIHGVLKNVDREVVSEAINIMNRSNDALIKFMEYHISNTDETKGENYQLVKTLGEQLIENCKQVLDVDPVYKDVAKPTGPKTAIDKNGNITYSEEPREKVRKLSQYVQEMALGGPITKESQPTIEEDLTRVYKAISAQADKQDISSSTRVEFEKLYSDLMKFLESSKEIDPSQTTQLAGMDVEDALDKDSTKEVASLPNKSTISKTVSSTIPRETIPFLHLRKKTPAGDWKYDRQLSSLFLDGLEKAAFNGVTFKDKYVLITGAGKGSIGAEVLQGLLQGGAKVVVTTSRFSKQVTDYYQSIYAKYGAKGSTLIVVPFNQGSKQDVEALIEFIYDTEKNGGLGWDLDAIIPFAAIPEQGIELEHIDSKSEFAHRIMLTNILRMMGCVKKQKSARGIETRPAQVILPMSPNHGTFGGDGMYSESKLSLETLFNRWHSESWANQLTVCGAIIGWTRGTGLMSANNIIAEGIEKMGVRTFSQKEMAFNLLGLLTPEVVELCQKSPVMADLNGGLQFVPELKEFTAKLRKELVETSEVRKAVSIETALEHKVVNGNSADAAYAQVEIQPRANIQLDFPELKPYKQVKQIAPAELEGLLDLERVIVVTGFAEVGPWGSARTRWEMEAFGEFSLEGCVEMAWIMGFISYHNGNLKGRPYTGWVDSKTKEPVDDKDVKAKYETSILEHSGIRLIEPELFNGYNPEKKEMIQEVIVEEDLEPFEASKETAEQFKHQHGDKVDIFEIPETGEYSVKLLKGATLYIPKALRFDRLVAGQIPTGWNAKTYGISDDIISQVDPITLFVLVSVVEAFIASGITDPYEMYKYVHVSEVGNCSGSGMGGVSALRGMFKDRFKDEPVQNDILQESFINTMSAWVNMLLISSSGPIKTPVGACATSVESVDIGVETILSGKARICIVGGYDDFQEEGSFEFGNMKATSNTLEEFEHGRTPAEMSRPATTTRNGFMEAQGAGIQIIMQADLALKMGVPIYGIVAMAATATDKIGRSVPAPGKGILTTAREHHSSVKYASPNLNMKYRKRQLVTREAQIKDWVENELEALKLEAEEIPSEDQNEFLLERTREIHNEAESQLRAAQQQWGNDFYKRDPRIAPLRGALATYGLTIDDLGVASFHGTSTKANDKNESATINEMMKHLGRSEGNPVIGVFQKFLTGHPKGAAGAWMMNGALQILNSGIIPGNRNADNVDKILEQFEYVLYPSKTLKTDGVRAVSITSFGFGQKGGQAIVVHPDYLYGAITEDRYNEYVAKVSAREKSAYKFFHNGMIYNKLFVSKEHAPYTDELEEDVYLDPLARVSKDKKSGSLTFNSKNIQSKDSYINANTIETAKMIENMTKEKVSNGGVGVDVELITSINVENDTFIERNFTPQEIEYCSAQPSVQSSFAGTWSAKEAVFKSLGVKSLGGGAALKDIEIVRVNKNAPAVELHGNAKKAAEEAGVTDVKVSISHDDLQAVAVAVSTKK
stoichiometry N [3]: 1

Further lines, results first:

fold enrichment of selected footprints over total ribosome-protected footprints [2]: ~40 fold
B1: nascent FAS α subunit (ribosome-nascent chain complexes) (natural protein)
chain: B2 chain

fold enrichment in footprints [4]: ≥ 30 fold
B3: nascent GluRS (ribosome-nascent chain complexes) (natural protein)
chain: T3 sequence

fold enrichment in footprints [5]: ≥ 30 fold
B4: nascent MetRS (ribosome-nascent chain complexes) (natural protein)
chain: T2 sequence
